Measurements taken from publication PMC5371411.

Molecular target: His-EspC (enteropathogenic Escherichia coli (EPEC)) (UniProt Q9EZE7)
Assay: SPR; His-EspC coupled by its His tag and EDC-NHS on a nickel-nitrilotriacetic acid sensor slide; His-EspA or His-EspA/His-EspD perfused in PBST at 50 µl/min; Reichert SR7500DC

His-EspA/His-EspD complex (from UniProt Q47184 1-192)
Kd: 24.8 nM
